The source of these data is PMC11730874.

One experiment has as its target T1, KIF17-mCitrine, Q9P2E2.
T1 chain: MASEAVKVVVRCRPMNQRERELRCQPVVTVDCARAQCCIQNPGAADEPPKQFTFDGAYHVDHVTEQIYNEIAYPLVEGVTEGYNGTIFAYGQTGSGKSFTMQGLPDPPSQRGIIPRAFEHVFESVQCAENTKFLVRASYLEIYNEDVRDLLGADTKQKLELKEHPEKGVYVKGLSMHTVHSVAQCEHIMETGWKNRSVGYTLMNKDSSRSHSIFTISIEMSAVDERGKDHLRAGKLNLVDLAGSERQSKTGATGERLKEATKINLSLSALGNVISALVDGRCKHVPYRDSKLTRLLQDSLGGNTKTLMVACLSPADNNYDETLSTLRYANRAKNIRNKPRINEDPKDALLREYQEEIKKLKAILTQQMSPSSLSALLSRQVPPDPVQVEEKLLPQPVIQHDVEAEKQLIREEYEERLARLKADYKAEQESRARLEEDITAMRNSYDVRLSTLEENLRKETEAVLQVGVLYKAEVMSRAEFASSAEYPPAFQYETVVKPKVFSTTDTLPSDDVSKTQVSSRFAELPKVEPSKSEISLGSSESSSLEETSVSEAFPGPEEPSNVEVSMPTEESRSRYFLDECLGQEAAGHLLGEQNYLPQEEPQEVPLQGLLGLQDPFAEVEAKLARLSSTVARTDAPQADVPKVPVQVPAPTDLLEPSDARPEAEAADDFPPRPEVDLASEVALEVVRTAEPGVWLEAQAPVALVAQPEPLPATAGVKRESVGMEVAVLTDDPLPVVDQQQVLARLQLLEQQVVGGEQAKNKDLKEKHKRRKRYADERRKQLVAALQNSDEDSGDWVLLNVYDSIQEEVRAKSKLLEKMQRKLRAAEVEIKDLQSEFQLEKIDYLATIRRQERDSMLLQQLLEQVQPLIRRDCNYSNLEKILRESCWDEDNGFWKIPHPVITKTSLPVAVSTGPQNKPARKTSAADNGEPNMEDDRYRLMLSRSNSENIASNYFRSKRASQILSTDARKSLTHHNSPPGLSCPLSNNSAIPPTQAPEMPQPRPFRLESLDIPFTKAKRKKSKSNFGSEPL
Put plainly: pull-down (His-tag magnetic beads) with Western blot densitometry. Particulars: chain shown with the change; Rab23 proteins exchanged with GMPPNP; lysates from HEK293 cells transfected with KIF17-mCitrine; n = 3 independent experiments; parent: 100.00. On the technique in general: A western blot detects proteins with antibodies after separation by electrophoresis.

Experiment [1] has as its target T2, WT hRab23_(7-172) (untagged) (human) (UniProt Q9ULC3).
T2 sequence: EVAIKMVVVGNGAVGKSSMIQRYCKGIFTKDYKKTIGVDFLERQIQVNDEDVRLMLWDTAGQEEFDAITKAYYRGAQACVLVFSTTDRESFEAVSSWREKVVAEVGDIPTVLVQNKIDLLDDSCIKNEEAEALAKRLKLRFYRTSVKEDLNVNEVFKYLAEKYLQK

Experiment [2] concerns the target T3, hRab23_(7-172) Y79del (untagged) (human) (UniProt Q9ULC3).
T3 sequence: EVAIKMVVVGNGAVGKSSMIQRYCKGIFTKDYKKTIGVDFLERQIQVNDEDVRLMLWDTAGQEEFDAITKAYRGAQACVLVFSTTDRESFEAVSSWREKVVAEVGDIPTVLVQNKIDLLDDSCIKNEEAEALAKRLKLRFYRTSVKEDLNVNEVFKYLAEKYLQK

In experiment [3] the target is T2, WT hRab23_(7-172) (untagged) (human). The source holds these as a separate data set.
Experiment [4] has as its target T3, hRab23_(7-172) Y79del (untagged) (human). This is another data set of the same source.

B1: His-SUMO-tagged WT hRab23_(7-172), GMPPNP-loaded, Q9ULC3 Y79del (protein)
chain: EVAIKMVVVGNGAVGKSSMIQRYCKGIFTKDYKKTIGVDFLERQIQVNDEDVRLMLWDTAGQEEFDAITKAYRGAQACVLVFSTTDRESFEAVSSWREKVVAEVGDIPTVLVQNKIDLLDDSCIKNEEAEALAKRLKLRFYRTSVKEDLNVNEVFKYLAEKYLQK
B1: in the experiment with KIF17-mCitrine, Q9P2E2, the percent of parent amounted to 54.2%.

B2: ecotropic viral integration site 5-like protein (EVI5L) (enzyme)
chain: MASPTLSPDSSSQEALSAPTCSPTSDSENLSPDELELLAKLEEQNRLLEADSKSMRSMNGSRRNSGSSLVSSSSASSNLSHLEEDTWILWGRIANEWEEWRRRKEKLLKELIRKGIPHHFRAIVWQLLCSATDMPVKNQYSELLKMSSPCEKLIRRDIARTYPEHEFFKGQDSLGQEVLFNVMKAYSLVDREVGYCQGSAFIVGLLLMQMPEEEAFCVFVRLMQEYRLRELFKPSMAELGLCIYQFEYMLQEQLPDLNTHFRSQSFHTSMYASSWFLTLFLTTFPLPVATRVFDIFMYEGLEIVFRVGLALLQVNQAELMQLDMEGMSQYFQRVIPHQFDSCPDKLVLKAYQVKYNPKKMKRLEKEYAAMKSKEMEEQIEIKRLRTENRLLKQRIETLEKGQVTRAQEAEENYVIKRELAVVRQQCSSAAEDLQKAQSTIRQLQEQQENPRLTEDFVSHLETELEQSRLRETETLGALREMQDKVLDMEKRNSSLPDENNVAQLQEELKALKVREGQAVASTRELKLQLQELSDTWQAHLARGGRWKESPRKLVVGELQDELMSVRLREAQALAEGRELRQRVVELETQDHIHRNLLNRVEAERAALQEKLQYLAAQNKGLQTQLSESRRKQAEAECKSKEEVMAVRLREADSMAAVAEMRQRIAELEIQREEGRIQGQLNHSDSSQYIRELKDQIEELKAEVRLLKGPPPFEDPLAFDGLSLARHLDEDSLPSSDEELLGVGVGAALQDALYPLSPRDARFFRRLERPAKDSEGSSDSDADELAAPYSQGLDN
With B2, the GTPase-Glo luminescence (remaining GTP) relative to buffer control, GAP-stimulated GTPase activity; 3 uM Rab23, 2.25 uM EVI5L, 5 uM GTP, 20 mM EDTA, 30 °C, 2 h in experiment [1] was 58%. Besides, the GTPase-Glo luminescence (remaining GTP) relative to buffer control, GAP-stimulated GTPase activity; 3 uM Rab23 Y79del, 2.25 uM EVI5L, 5 uM GTP, 20 mM EDTA, 30 °C, 2 h in experiment [2] came out at 75.7%.

B3: Inturned-Fuzzy (Intu-Fuz) complex (complex)
chain 1: MASVASCDSRPSSDELPGDPSSQEEDEDYDFEDRVSDSGSYSSASSDYDDLEPEWLDSVQKNGELFYLELSEDEEESLLPETPTVNHVRFSENEIIIEDDYKERKKYEPKLKQFTKILRRKRLLPKRCNKKNSNDNGPVSILKHQSNQKTGVIVQQRYKDVNVYVNPKKLTVIKAKEQLKLLEVLVGIIHQTKWSWRRTGKQGDGERLVVHGLLPGGSAMKSGQVLIGDVLVAVNDVDVTTENIERVLSCIPGPMQVKLTFENAYDVKRETSHPRQKKTQSNTSDLVKLLWGEEVEGIQQSGLNTPHIIMYLTLQLDSETSKEEQEILYHYPMSEASQKLKSVRGIFLTLCDMLENVTGTQVTSSSLLLNGKQIHVAYWKESDKLLLIGLPAEEVPLPRLRNMIENVIQTLKFMYGSLDSAFCQIENVPRLDHFFNLFFQRALQPAKLHSSASPSAQQYDASSAVLLDNLPGVRWLTLPLEIKMELDMALSDLEAADFAELSEDYYDMRRLYTILGSSLFYKGYLICSHLPKDDLIDIAVYCRHYCLLPLAAKQRIGQLIIWREVFPQHHLRPLADSSTEVFPEPEGRYFLLVVGLKHYMLCVLLEAGGCASKAIGSPGPDCVYVDQVKTTLHQLDGVDSRIDERLASSPVPCLSCADWFLTGSREKTDSLTTSPILSRLQGTSKVATSPTCRRTLFGDYSLKTRKPSPSCSSGGSDNGCEGGEDDGFSPHTTPDAVRKQRESQGSDGLEESGTLLKVTKKKSTLPNPFHLGNLKKDLPEKELEIYNTVKLTSGPENTLFHYVALETVQGIFITPTLEEVAQLSGSIHPQLIKNFHQCCLSIRAVFQQTLVEEKKKGLNSGDHSDSAKSVSSLNPVKEHGVLFECSPGNWTDQKKAPPVMAYWVVGRLFLHPKPQELYVCFHDSVTEIAIEIAFKLFFGLTL
chain 2: MGEEGTGGTVHLLCLAASSGVPLFCRSSRGGAPARQQLPFSVIGSLNGVHMFGQNLEVQLSSARTENTTVVWKSFHDSITLIVLSSEVGISELRLERLLQMVFGAMVLLVGLEELTNIRNVERLKKDLRASYCLIDSFLGDSELIGDLTQCVDCVIPPEGSLLQEALSGFAEAAGTTFVSLVVSGRVVAATEGWWRLGTPEAVLLPWLVGSLPPQTARDYPVYLPHGSPTVPHRLLTLTLLPSLELCLLCGPSPPLSQLYPQLLERWWQPLLDPLRACLPLGPRALPSGFPLHTDILGLLLLHLELKRCLFTVEPLGDKEPSPEQRRRLLRNFYTLVTSTHFPPEPGPPEKTEDEVYQAQLPRACYLVLGTEEPGTGVRLVALQLGLRRLLLLLSPQSPTHGLRSLATHTLHALTPLL
In turn, B3 had a GTPase-Glo luminescence (remaining GTP) relative to buffer control, GEF-aided nucleotide exchange; 3 uM Rab23, 2.25 uM Intu-Fuz, 5 uM GTP, 30 °C, 2 h in experiment [3] of 17.4%. In experiment [4], this molecule had a GTPase-Glo luminescence (remaining GTP) relative to buffer control, GEF-aided nucleotide exchange; 3 uM Rab23 Y79del, 2.25 uM Intu-Fuz, 5 uM GTP, 30 °C, 2 h of 78.2%.
